{"source": "paper PMC7005872", "biological_target": "TBC1D9 (UniProt Q6ZT07)", "test": "co-IP of GFP-TBK1 and FLAG-TBC1D9", "details": "reference: GFP-TBK1 wild type; sites S172", "data": [{"substance": "TBK1 (from UniProt Q9UHD2) GFP-TBK1 S172A", "values": [{"measurement": "binding against the reference", "value": "lost"}]}]}
